Assay [1] addresses T1, rhPSMA, extracellular part of human PSMA (residues 44-750) with its native N-terminus (human, UniProt Q04609 44-750, N-glycosylated (made in Schneider S2 insect cells)).
T1 construct: range 44-750; No tag; also called wild-type rhPSMA; rhGCPII
The assay is described as follows: ELISA on coated rhPSMA; G4 taken as the sixth candidate. As to the method:
50 μL of rhPSMA (5 μg/mL in TBS) was directly adsorbed onto the surface of a MaxiSorp 96-well plate overnight at 4° C. Similarly, ovalbumin-coated wells (10 μg/mL in PBS) were used as a negative control. After blocking with 250 μL of 2% w/v BSA for 1 h at room temperature, 50 μL from a serial Anticalin dilution in PBS was added to each well and incubated for 1 h. The plates were washed three times and bound Anticalins were detected with StrepTactin-AP as described further above. The data were analyzed using Prism 5 software (GraphPad) and absorption values (A) were fitted according to the formula ΔA=Aₘₐₓ·[Lₜₒₜ]/(KD+[Lₜₒₜ]) with the concentration of the applied lipocalin variant [Lₜₒₜ] and the dissociation constant KD.
Specific binding activities of selected Anticalins toward rhPSMA as well as apparent affinity constants were initially determined by ELISA in 96-well Maxisorp plates coated with the recombinant wild-type PSMA protein. Anticalins were applied in a dilution series and detected via the C-terminal Strep-tag II. Five of the six analyzed Anticalin candidates specifically recognized PSMA with apparent dissociation constants (K₀ values) ranging from 6 to 42 nM, for A3 and H3, respectively (FIG. 4). For comparison, binding activity towards ovalbumin, which served as a negative control, was negligible. The G4 clone was later found to bind the anti-FLAG antibody (not shown).
Background: ELISA stands for enzyme-linked immunosorbent assay.

Assay [2] addresses T2, full-length human PSMA expressed on cells (HEK293T/PSMA transfectants, LNCaP) (human, UniProt Q04609 1-750).
T2 construct: whole, on cells; Transfected in HEK293T/17 cells, endogenous in LNCaP cells; In the Western blot it stood in SDS cell lysates; also called full length wild-type PSMA; cellular PSMA
The assay is described as follows: immunofluorescence microscopy on fixed, permeabilized cells. As to the method:
PSMA-positive and -negative cells grown on cover slides coated with gelatin (0.1% w/v) were washed twice with PBS, fixed with 4% w/v paraformaldehyde in PBS for 15 min, permeabilized by treatment with PBS containing 0.1% v/v Triton X-100 for 15 min, and incubated in the blocking solution (5% w/v non-fat dried milk/PBS) for 30 min at room temperature (RT). Cells were then incubated with 0.5 μM Anticalin in 5% w/v non-fat dried milk/PBS for 45 min at RT followed by incubation with a Strep-tag II specific monoclonal antibody StrepMAB-Immo (2 μg/mL in PBS/0.05% Tween-20; IBA, 2-1517) for 1 h at RT. An anti-mouse secondary antibody conjugated to Alexa Fluor 488 (5 μg/mL in PBS/0.05% Tween-20; Life Technologies, A11029) served as detection reagent and was applied for 1 h at RT. All incubation steps were interspersed by extensive washing with PBS/0.05% Tween-20. […]
For immunofluorescence microscopy, the different cell lines were fixed with paraformaldehyde on glass coverslips and permeabilized. Following a blocking step, cells were probed with the Anticalin A3A5, which was detected by a murine antibody (StrepMAB-Immo) recognizing the Strep-tag II and an Alexa Fluor 488-labeled anti-mouse secondary antibody. […] Also, when wild-type Lcn2 was used instead of the Anticalin A3A5, no fluorescent staining was detected. […]

T2 sequence (Q04609 whole entry): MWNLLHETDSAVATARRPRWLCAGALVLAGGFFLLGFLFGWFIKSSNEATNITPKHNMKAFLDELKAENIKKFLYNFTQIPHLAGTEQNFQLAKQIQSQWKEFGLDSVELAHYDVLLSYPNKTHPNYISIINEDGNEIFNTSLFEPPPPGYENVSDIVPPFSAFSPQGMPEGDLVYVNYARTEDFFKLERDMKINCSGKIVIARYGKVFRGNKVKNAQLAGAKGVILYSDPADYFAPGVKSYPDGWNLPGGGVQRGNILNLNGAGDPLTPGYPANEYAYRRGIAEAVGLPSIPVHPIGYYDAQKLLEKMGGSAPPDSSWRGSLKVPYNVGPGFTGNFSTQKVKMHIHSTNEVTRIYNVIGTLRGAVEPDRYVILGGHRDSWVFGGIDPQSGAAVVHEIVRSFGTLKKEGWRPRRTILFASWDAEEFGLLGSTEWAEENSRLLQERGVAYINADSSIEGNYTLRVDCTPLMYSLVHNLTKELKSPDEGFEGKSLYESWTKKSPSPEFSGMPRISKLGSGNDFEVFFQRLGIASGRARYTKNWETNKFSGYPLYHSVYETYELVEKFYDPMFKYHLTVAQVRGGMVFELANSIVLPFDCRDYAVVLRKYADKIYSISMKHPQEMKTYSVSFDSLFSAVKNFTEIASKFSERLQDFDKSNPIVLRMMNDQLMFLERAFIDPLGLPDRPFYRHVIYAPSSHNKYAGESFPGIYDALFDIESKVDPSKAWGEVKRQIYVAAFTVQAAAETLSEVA
T1 sequence (Q04609 44-750 limits assumed): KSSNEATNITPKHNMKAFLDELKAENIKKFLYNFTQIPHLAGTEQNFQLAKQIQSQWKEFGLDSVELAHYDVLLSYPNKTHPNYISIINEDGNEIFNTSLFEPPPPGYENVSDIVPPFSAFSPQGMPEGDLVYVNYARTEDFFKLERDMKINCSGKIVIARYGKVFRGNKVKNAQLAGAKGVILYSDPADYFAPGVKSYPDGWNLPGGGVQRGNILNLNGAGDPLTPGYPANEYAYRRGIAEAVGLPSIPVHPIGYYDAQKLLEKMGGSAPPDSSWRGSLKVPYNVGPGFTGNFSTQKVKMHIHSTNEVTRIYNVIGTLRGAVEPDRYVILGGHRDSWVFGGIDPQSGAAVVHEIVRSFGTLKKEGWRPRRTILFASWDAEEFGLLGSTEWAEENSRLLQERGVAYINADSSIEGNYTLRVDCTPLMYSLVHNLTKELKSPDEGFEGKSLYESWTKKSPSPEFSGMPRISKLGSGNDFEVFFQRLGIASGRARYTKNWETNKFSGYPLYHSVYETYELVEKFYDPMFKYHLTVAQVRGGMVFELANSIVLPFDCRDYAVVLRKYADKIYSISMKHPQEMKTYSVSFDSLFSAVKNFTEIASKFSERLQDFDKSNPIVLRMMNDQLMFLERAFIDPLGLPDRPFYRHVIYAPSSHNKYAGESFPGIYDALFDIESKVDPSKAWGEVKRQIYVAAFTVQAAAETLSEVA

B1: Anticalin candidate G4 (designed binder)
chain: QDSTSDLIPAPPLSKVPLQQNFQDNQFHGKWYVVGHAGNMLLREDKDPSKMVATIYELKEDKSYNVTQVDFGTKKCFYAINTFVPGSQPGEFTLGHIKSNPGMTSMLVRVVSTNYNQHAMVFFKAVLQNREGFLITLYGRTKELTSELKENFIRFSKSLGLPENHIVFPVPIDQCIDG
notes: also called G4 clone; not shown: C-terminal Strep-tag II
Regarding B1, the binding result in assay [1] is “no binding”.

B2: wild-type Lcn2 (other)
chain: QDSTSDLIPAPPLSKVPLQQNFQDNQFQGKWYVVGLAGNAILREDKDPQKMYATIYELKEDKSYNVTSVLFRKKKCDYWIRTFVPGCQPGEFTLGNIKSYPGLTSYLVRVVSTNYNQHAMVFFKKVSQNREYFKITLYGRTKELTSELKENFIRFSKSLGLPENHIVFPVPIDQCIDG
notes: Negative control in microscopy and flow cytometry; also called wt Lcn2; lipocalin 2
As for B2, the binding result in assay [2] is “no binding (tested: 0.5 µM)”.

(Values after patent US20180318451A1 (published 2018).)
